Reference: patent publication US20180326086A1 (UNIVERSITY OF BRITISH COLUMBIA, published 2018)

What was measured:
Test in all cases: SPR direct binding, antigen immobilized, hybridoma supernatant
A-beta42 oligomer = molecular target: T1, A-beta42 oligomer (human)
T1 construct: also called Aβ 42 Oligomer; A-beta 1-42 oligomers
Protocol: (§1) SPR Analysis All SPR measurements were performed using a Molecular Affinity Screening System (MASS-1) (Sierra Sensors GmbH, Hamburg, Germany), an analytical biosensor that employs high intensity laser light and high speed optical scanning to monitor binding interactions in real time. The primary screening of tissue culture supernatants was performed using an SPR direct binding assay, whereby BSA-conjugated peptides, A-Beta42 Monomer and A-beta42 Oligomer are covalently immobilized on individual flow cells of a High Amine Capacity (HAC) sensorchip (Sierra Sensors GmbH, Hamburg, Germany) and antibodies flowed over the surface. Protein G purified mAbs were analyzed in a secondary screen using an SPR indirect (capture) binding assay, whereby the antibodies were captured on a protein A-derivatized sensorchip (XanTec Bioanalytics GmbH, Duesseldorf, Germany) and A-Beta40 Monomer, A-beta42 Oligomer, soluble brain extracts and cerebrospinal fluid flowed over the surface. The specificity of the antibodies was verified in an SPR direct binding assay by covalently immobilizing A-Beta42 Monomer and A-beta42 Oligomer on individual flow cells of a HAC sensorchip and flowing purified mAbs.
(§2) Clones were retested for their ability to bind cyclic peptide, linear peptide, A-beta 1-42 monomer and A-beta 1-42 oligomers prepared as described above. Binding assays were performed using SPR as described above (Direct binding assays).

[1] = molecular target: T2, cyclo(CGHDSGG)-conjugated-BSA (SEQ ID NO: 2) (bovine, UniProt P02769 25-607, head-to-tail cyclized (amide bond between N-terminus and C-terminus); Cys conjugated to BSA through SMCC)
T2 construct: HDSG is A-beta residues 6-9; C, G and GG are linker residues; also called Cyclic-Peptide; cyclic peptide
T2 sequence (P02769 25-607 limits assumed): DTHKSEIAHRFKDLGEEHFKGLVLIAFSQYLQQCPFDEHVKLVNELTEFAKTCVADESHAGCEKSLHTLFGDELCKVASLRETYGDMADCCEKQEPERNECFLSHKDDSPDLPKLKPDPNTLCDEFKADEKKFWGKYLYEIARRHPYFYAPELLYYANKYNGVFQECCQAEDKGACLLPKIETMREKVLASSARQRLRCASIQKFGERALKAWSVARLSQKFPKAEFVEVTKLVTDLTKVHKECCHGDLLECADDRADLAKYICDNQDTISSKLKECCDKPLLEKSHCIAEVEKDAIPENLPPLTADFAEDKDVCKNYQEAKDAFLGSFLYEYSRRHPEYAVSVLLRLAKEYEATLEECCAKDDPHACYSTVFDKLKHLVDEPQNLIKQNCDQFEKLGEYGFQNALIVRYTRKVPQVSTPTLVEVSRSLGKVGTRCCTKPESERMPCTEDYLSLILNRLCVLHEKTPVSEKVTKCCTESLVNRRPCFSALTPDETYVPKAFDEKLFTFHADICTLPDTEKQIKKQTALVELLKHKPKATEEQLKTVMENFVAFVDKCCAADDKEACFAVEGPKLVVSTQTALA
Protocol: as §1, §2

A-beta42 monomer = molecular target: T3, A-beta42 monomer (human)
T3 construct: also called Aβ 42 Monomer; A-beta 1-42 monomer
T3 sequence (peptide, as listed by the source): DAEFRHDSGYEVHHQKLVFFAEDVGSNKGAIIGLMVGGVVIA
Protocol: as §1, §2

T1 sequence (peptide, as listed by the source): as above

SPR binding response (RU) (A-beta42 oligomer): 109 RU
SPR binding response (RU) [1]: 136 RU
SPR binding response (RU) (A-beta42 monomer): 56.5 RU
B1: 303-25-1B4 (antibody, V domains shown)
VH: QVQLQQPGAELVRPGASVKLSCKASGYTFTSYWMNWVKQRPGQGLEWIGMIDPSDSQTHYNQMFKDKATLTVDKSSSTAYLQLSSLTSEDSAVYYCSRGGYWGQGTTLTVSS
VL: DIQMTQSPSSLSASLGGKVTITCKASQDINNYIAWYQHKPGKGPRQLIYYTSTLQPGIPSRFSGSGSGRDYSFTISDLEPEDIATYYCLQYDNLWTFGGGTKLEIK
notes: Mouse monoclonal raised against cyclo(CGHDSGG)-KLH; also called clone 25
